For this data set, the system named is Saccharomyces cerevisiae. The data set is described as follows: protein stability index of tFT-peptide fusion (C-terminal peptide) (PSI (0-1 scale)); higher = more stable (slower turnover). Particulars: temperature: 30 C. How it is done:
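MPS profiling in S. cerevisiae of the yeast C-terminome library: the last 12 aa of each annotated ORF are fused to the C-terminus of a sfGFP-mCherry timer, after a GGGS linker. Cells are FACS-sorted into 8 mCherry/sfGFP bins and deep-sequenced. PSI runs from 0 (unstable) to 1 (stable); wild type and das1Δ backgrounds, two technical replicates each.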

The mark [1] stands for this setting: genetic background: das1 deletion.

± gives the standard deviation of the averaged measurements.

For LKTSGRYQEDVW [NCP1 C-terminal 12 aa], the protein stability index reads like this: under setting [1], 0.706 ± 0.02; (genetic background: wild type) 0.702 ± 0.02.

In the case of LLEVSDQAFEPE [RGD1 C-terminal 12 aa], the protein stability index amounted to 0.6967 ± 0.0019 under setting [1] and 0.683 ± 0.053 (genetic background: wild type).

For the sequence LLGENLSDMPSL [RDS1 C-terminal 12 aa], the protein stability index reads like this: under setting [1], 0.6893 ± 0.0025; (genetic background: wild type) 0.693 ± 0.021.

Regarding LLQHPWLDAHII [STE11 C-terminal 12 aa], the protein stability index reads like this: under setting [1], 0.722 ± 0.028; (genetic background: wild type) 0.7253 ± 0.0019.

LLQVCFIGVVCE [IRC21 C-terminal 12 aa] gave a protein stability index under setting [1] of 0.275 ± 0.0082 and a protein stability index (genetic background: wild type) of 0.2885 ± 0.0018.

Sequence LNAVESLKEAST [TIM11 C-terminal 12 aa] registered a protein stability index under setting [1] of 0.69 ± 0.0078 and a protein stability index (genetic background: wild type) of 0.686 ± 0.029.

On to LNKIKNIRKKKQ [SNQ2 C-terminal 12 aa], for which the protein stability index reads like this: under setting [1], 0.705 ± 0.031; (genetic background: wild type) 0.393 ± 0.021.

For LNLPVQVEKKEK [MMR1 C-terminal 12 aa], the protein stability index by setting is: under setting [1], 0.69221 ± 0.00034; (genetic background: wild type) 0.692 ± 0.013.

LNSYEEEANGST [SHG1 C-terminal 12 aa]: the protein stability index by setting is: under setting [1], 0.7062 ± 0.0036; (genetic background: wild type) 0.734 ± 0.028.

As to LQHYRTHLKKGQ [NRG1 C-terminal 12 aa], the protein stability index is 0.7007 ± 0.0015 under setting [1] and 0.6784 ± 0.0039 (genetic background: wild type).

For the sequence LQSLPISSWRCT [YBR220C C-terminal 12 aa], the protein stability index was 0.701 ± 0.0098 under setting [1] and 0.6711 ± 0.003 (genetic background: wild type).

On to LQVILMSLGAIA [MDM31 C-terminal 12 aa], for which the protein stability index runs as follows: under setting [1], 0.446 ± 0.014; (genetic background: wild type) 0.508 ± 0.0098.

Take LRANANMPTPSL [RLF2 C-terminal 12 aa]: the protein stability index is, setting by setting: under setting [1], 0.7083 ± 0.0022; (genetic background: wild type) 0.665 ± 0.0083.

On to LRKDRQVEYPYK [MGM101 C-terminal 12 aa], for which the protein stability index under setting [1] is 0.723 ± 0.033 and the protein stability index (genetic background: wild type) worked out at 0.779 ± 0.035.

On to LRLKYNDANTKL [VTC1 C-terminal 12 aa], for which the protein stability index came to 0.68 ± 0.011 under setting [1] and 0.6552 ± 0.0047 (genetic background: wild type).

Turning to LSCRKNLSAFAT [YOL085C C-terminal 12 aa], the protein stability index turned out to be 0.658 ± 0.018 under setting [1] and 0.666 ± 0.0096 (genetic background: wild type).

Take “LSIMKTLVPWTL [YML054C-A C-terminal 12 aa]”: the protein stability index worked out at 0.712 ± 0.024 under setting [1] and 0.6528 ± 0.0022 (genetic background: wild type).

As for LTEILSKVFNRL [DUG2 C-terminal 12 aa], the protein stability index is, setting by setting: under setting [1], 0.702 ± 0.018; (genetic background: wild type) 0.678 ± 0.033.

Take LTFDVKLVSMKN [FPR3 C-terminal 12 aa]: the protein stability index runs as follows: under setting [1], 0.679 ± 0.025; (genetic background: wild type) 0.667 ± 0.046.

With LTLARYRAKGML [TOM71 C-terminal 12 aa], the protein stability index under setting [1] stood at 0.6936 ± 0.0042 and the protein stability index (genetic background: wild type) came to 0.657 ± 0.018.

As to LVICCQRCRRNC [YPL277C C-terminal 12 aa], the protein stability index was found to be 0.69 ± 0.0082 under setting [1] and 0.552 ± 0.051 (genetic background: wild type).

Turning to LVKLYISFFFMC [YBR144C C-terminal 12 aa], the protein stability index was 0.313 ± 0.0049 under setting [1] and 0.136 ± 0.0087 (genetic background: wild type).

Regarding LVLLLQIYFFSF [YGR242W C-terminal 12 aa], the protein stability index worked out at 0.277 ± 0.03 under setting [1] and 0.296 ± 0.0078 (genetic background: wild type).

As for LVRQKREHEKKE [GPT2 C-terminal 12 aa], the protein stability index was 0.713 ± 0.0084 under setting [1] and 0.658 ± 0.021 (genetic background: wild type).

For LVYRDGEISELK [PAT1 C-terminal 12 aa], the protein stability index by setting is: under setting [1], 0.7114 ± 0.0045; (genetic background: wild type) 0.703 ± 0.13.

For LWNEFLSSINEK [ECM31 C-terminal 12 aa], the protein stability index by setting is: under setting [1], 0.736 ± 0.036; (genetic background: wild type) 0.743 ± 0.06.

Take MAMPPGQSQPQY [DHH1 C-terminal 12 aa]: the protein stability index is 0.727 ± 0.0093 under setting [1] and 0.713 ± 0.034 (genetic background: wild type).

Turning to MCSIINIQQWYV [YGL182C C-terminal 12 aa], the protein stability index runs as follows: under setting [1], 0.6733 ± 0.0013; (genetic background: wild type) 0.627 ± 0.01.

For the sequence MDGFNDPFAAAA [GIP2 C-terminal 12 aa], the protein stability index runs as follows: under setting [1], 0.736 ± 0.028; (genetic background: wild type) 0.752 ± 0.072.

Take “MDSGLDLEFCKP [YKR075W-A C-terminal 12 aa]”: the protein stability index under setting [1] amounted to 0.687 ± 0.019 and the protein stability index (genetic background: wild type) is 0.692 ± 0.045.

Consider MESNDNLERVLS [APS1 C-terminal 12 aa], for which the protein stability index worked out at 0.673 ± 0.038 under setting [1] and 0.695 ± 0.032 (genetic background: wild type).

For MISGPSSSSSAP [CYC3 C-terminal 12 aa], the protein stability index reads like this: under setting [1], 0.719 ± 0.012; (genetic background: wild type) 0.741 ± 0.081.

With MKVLQLGFSWGG [IRC7 C-terminal 12 aa], the protein stability index reads like this: under setting [1], 0.7148 ± 0.0053; (genetic background: wild type) 0.6814 ± 0.0067.

With MMNFFRDLKYGH [ODC2 C-terminal 12 aa], the protein stability index is, setting by setting: under setting [1], 0.704 ± 0.004; (genetic background: wild type) 0.693 ± 0.018.

For MNKAEDDISEEE [SUB1 C-terminal 12 aa], the protein stability index under setting [1] stood at 0.713 ± 0.029 and the protein stability index (genetic background: wild type) was 0.684 ± 0.011.

Consider “MNRNKSDVPYLQ [YER053C-A C-terminal 12 aa]”, for which the protein stability index under setting [1] came to 0.702 ± 0.014 and the protein stability index (genetic background: wild type) was 0.658 ± 0.027.

MPPEHPFYSHYR [YNL193W C-terminal 12 aa]: the protein stability index is 0.7283 ± 0.0031 under setting [1] and 0.729 ± 0.01 (genetic background: wild type).

As to MQTKIEHYMESI [MRX12 C-terminal 12 aa], the protein stability index reads like this: under setting [1], 0.712 ± 0.028; (genetic background: wild type) 0.68 ± 0.053.

Consider MRKHLRVSPFLF [YDL071C C-terminal 12 aa], for which the protein stability index was 0.711 ± 0.016 under setting [1] and 0.329 ± 0.0068 (genetic background: wild type).

In the case of MVVIVLFLSYRN [YGL177W C-terminal 12 aa], the protein stability index runs as follows: under setting [1], 0.276 ± 0.034; (genetic background: wild type) 0.275 ± 0.031.

As for MWPMPSLPWNGM [TSR1 C-terminal 12 aa], the protein stability index by setting is: under setting [1], 0.727 ± 0.019; (genetic background: wild type) 0.687 ± 0.017.

Turning to NAASLIGTQQNN [DNF1 C-terminal 12 aa], the protein stability index reads like this: under setting [1], 0.709 ± 0.013; (genetic background: wild type) 0.685 ± 0.013.

For the sequence NALKSKQKNKDD [AYR1 C-terminal 12 aa], the protein stability index is 0.684 ± 0.0082 under setting [1] and 0.698 ± 0.044 (genetic background: wild type).

On to NCPGCESKPVIT [SSL1 C-terminal 12 aa], for which the protein stability index runs as follows: under setting [1], 0.678 ± 0.016; (genetic background: wild type) 0.683 ± 0.0096.

In turn, NDDSKDEVDIIP [YPR196W C-terminal 12 aa] displayed a protein stability index under setting [1] of 0.69 ± 0.013 and a protein stability index (genetic background: wild type) of 0.698 ± 0.015.

The sequence NDISFAFQYISH [RAD54 C-terminal 12 aa] registered a protein stability index under setting [1] of 0.749 ± 0.014 and a protein stability index (genetic background: wild type) of 0.683 ± 0.069.

On to NDNHNPFYIREE [CDC26 C-terminal 12 aa], for which the protein stability index by setting is: under setting [1], 0.723 ± 0.021; (genetic background: wild type) 0.705 ± 0.049.

Consider NEKLSRESKGSE [SYF2 C-terminal 12 aa], for which the protein stability index runs as follows: under setting [1], 0.687 ± 0.01; (genetic background: wild type) 0.691 ± 0.014.

On to NENEFIAICTDS [CDC31 C-terminal 12 aa], for which the protein stability index is 0.698 ± 0.02 under setting [1] and 0.695 ± 0.022 (genetic background: wild type).

On to NENIHSLIGNSY [NNF2 C-terminal 12 aa], for which the protein stability index worked out at 0.702 ± 0.023 under setting [1] and 0.693 ± 0.0087 (genetic background: wild type).

The sequence NENSEIISIDED [CTR86 C-terminal 12 aa] displayed a protein stability index under setting [1] of 0.676 ± 0.0078 and a protein stability index (genetic background: wild type) of 0.65 ± 0.023.

For the sequence NFQREVIDNSKL [LDH1 C-terminal 12 aa], the protein stability index reads like this: under setting [1], 0.697 ± 0.015; (genetic background: wild type) 0.719 ± 0.067.

For the sequence NGKKNEAYEGFV [EXP1 C-terminal 12 aa], the protein stability index runs as follows: under setting [1], 0.699 ± 0.015; (genetic background: wild type) 0.722 ± 0.014.

Regarding NIIHSGDVLLAE [LEU9 C-terminal 12 aa], the protein stability index stood at 0.677 ± 0.019 under setting [1] and 0.708 ± 0.035 (genetic background: wild type).

Regarding NILKVDSNSSSS [RGR1 C-terminal 12 aa], the protein stability index is, setting by setting: under setting [1], 0.7201 ± 0.0019; (genetic background: wild type) 0.702 ± 0.029.

As for NKGPPCKTSALL [HMG2 C-terminal 12 aa], the protein stability index under setting [1] is 0.739 ± 0.023 and the protein stability index (genetic background: wild type) was found to be 0.668 ± 0.011.

With NKNLHGINTNEF [TRE1 C-terminal 12 aa], the protein stability index stood at 0.7067 ± 0.0039 under setting [1] and 0.6665 ± 0.0019 (genetic background: wild type).

In the case of “NLPFYKNQATLQ [YBR131C-A C-terminal 12 aa]”, the protein stability index is, setting by setting: under setting [1], 0.6902 ± 0.005; (genetic background: wild type) 0.707 ± 0.031.

NLRADSFLQYPL [YDR029W C-terminal 12 aa]: the protein stability index reads like this: under setting [1], 0.704 ± 0.0075; (genetic background: wild type) 0.714 ± 0.021.

Take NNKSIQKVNSPS [PAC2 C-terminal 12 aa]: the protein stability index is, setting by setting: under setting [1], 0.709 ± 0.0075; (genetic background: wild type) 0.807 ± 0.035.

Regarding NPHPRIQMKMSV [CDC21 C-terminal 12 aa], the protein stability index reads like this: under setting [1], 0.663 ± 0.035; (genetic background: wild type) 0.624 ± 0.048.

On to NPPERAKVNARS [RCR1 C-terminal 12 aa], for which the protein stability index is, setting by setting: under setting [1], 0.675 ± 0.017; (genetic background: wild type) 0.68 ± 0.042.

As for “NPSLRQSRIQGW [YGR161W-C C-terminal 12 aa]”, the protein stability index amounted to 0.725 ± 0.005 under setting [1] and 0.731 ± 0.034 (genetic background: wild type).

Take NPTALEKGIKDL [TRX3 C-terminal 12 aa]: the protein stability index was 0.714 ± 0.025 under setting [1] and 0.69 ± 0.016 (genetic background: wild type).

Turning to NPVVNRHIEHDD [COX13 C-terminal 12 aa], the protein stability index was found to be 0.701 ± 0.011 under setting [1] and 0.707 ± 0.017 (genetic background: wild type).

Take NRPGKSRRARRF [EBP2 C-terminal 12 aa]: the protein stability index turned out to be 0.694 ± 0.026 under setting [1] and 0.668 ± 0.016 (genetic background: wild type).

Regarding NSAGLLTLEYLS [TFC6 C-terminal 12 aa], the protein stability index under setting [1] was 0.696 ± 0.012 and the protein stability index (genetic background: wild type) came to 0.719 ± 0.036.

For the origin of these results see the supplement of paper PMC10724198.
